Here are results for two substances from publication PMC7655804.

This assay deals with ferroportin from Philippine tarsier (Carlito syrichta / Tarsius syrichta) (Carlito syrichta (Tarsius syrichta, Philippine tarsier)).

With human hepcidin, the initial rate of Co^2+ transport by TsFpn proteoliposomes with both hepcidin and 11F9 Fab on the external side amounted to 0.032 min⁻¹.

As for human hepcidin (peptide), the initial rate of Co^2+ transport by TsFpn proteoliposomes with hepcidin on both inside and outside of the liposomes stood at 0.043 min⁻¹.
